In assay [1] the target is T1, RGL1 (Arabidopsis DELLA protein), yeast two-hybrid prey in pGADT7 AD vector (Arabidopsis, UniProt Q9C8Y3 1-511).
T1 construct: also called AtDELLA
T1 sequence (looked up): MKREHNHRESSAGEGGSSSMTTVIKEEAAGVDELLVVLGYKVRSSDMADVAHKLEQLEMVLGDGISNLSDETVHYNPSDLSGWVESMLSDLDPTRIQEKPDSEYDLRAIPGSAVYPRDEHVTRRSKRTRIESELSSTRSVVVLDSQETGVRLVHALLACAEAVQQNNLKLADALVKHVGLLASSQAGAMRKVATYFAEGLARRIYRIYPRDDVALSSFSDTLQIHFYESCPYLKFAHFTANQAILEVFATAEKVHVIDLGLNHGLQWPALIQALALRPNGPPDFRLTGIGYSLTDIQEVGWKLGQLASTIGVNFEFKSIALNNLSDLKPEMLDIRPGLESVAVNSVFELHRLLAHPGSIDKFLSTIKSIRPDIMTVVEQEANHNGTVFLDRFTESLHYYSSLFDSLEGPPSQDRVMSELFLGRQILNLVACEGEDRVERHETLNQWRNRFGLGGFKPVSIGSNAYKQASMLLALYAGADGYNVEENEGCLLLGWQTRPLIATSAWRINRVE
In words: yeast two-hybrid without GA (FIG. 11); member RGL1 named in the legend of FIG. 11. The procedure: (§1) Arabidopsis has five DELLA proteins (RGA, GAI, RGL1, RGL2, and RGL3; collectively designated AtDELLA; Fleet, C. M., and Sun, T.-P. (2005) Curr. Opin. Plant Biol., 8, 77-85; Dill, A., and Sun, T. (2001) Genetics, 159, 777-785); therefore, there are 15 possible combinations of GID1/DELLA proteins. To verify the positive interactions between AtGID1-AtDELLA, two experiments were conducted using the yeast two hybrid (Y2H) system. In the first experiment (Assay A), a viable colony assay using a defined medium in which only positive clones would survive was carried out. In the second experiment (Assay B), β-galactosidase activity was measured, as reporter gene product of AtGID1-AtDELLA interactions.
BD Matchmaker Two-hybrid System 3 (Clontech, Palo Alto, Calif., USA; now part of Takara Bio) was used in the Y2H experiments. After confirming the PCR products of the AtGID1 genes by sequencing, PCR products were cloned into pGBKT7 DNA-BD shuttle vector to construct bait plasmids. […]
Thus, GA₄ (10⁻⁵ M) was used and added to the medium. […] As described above, all AtGID1-AtDELLA interactions were detected in a GA-dependent manner; however, interactions between AtGID1b and some AtDELLAs were detected, albeit weakly, in the absence of GA (FIG. 11).

For assay [2], the target named is T2, RGL2 (Arabidopsis DELLA protein), yeast two-hybrid prey in pGADT7 AD vector (Arabidopsis, UniProt Q8GXW1 1-547).
T2 construct: also called AtDELLA
T2 sequence (looked up): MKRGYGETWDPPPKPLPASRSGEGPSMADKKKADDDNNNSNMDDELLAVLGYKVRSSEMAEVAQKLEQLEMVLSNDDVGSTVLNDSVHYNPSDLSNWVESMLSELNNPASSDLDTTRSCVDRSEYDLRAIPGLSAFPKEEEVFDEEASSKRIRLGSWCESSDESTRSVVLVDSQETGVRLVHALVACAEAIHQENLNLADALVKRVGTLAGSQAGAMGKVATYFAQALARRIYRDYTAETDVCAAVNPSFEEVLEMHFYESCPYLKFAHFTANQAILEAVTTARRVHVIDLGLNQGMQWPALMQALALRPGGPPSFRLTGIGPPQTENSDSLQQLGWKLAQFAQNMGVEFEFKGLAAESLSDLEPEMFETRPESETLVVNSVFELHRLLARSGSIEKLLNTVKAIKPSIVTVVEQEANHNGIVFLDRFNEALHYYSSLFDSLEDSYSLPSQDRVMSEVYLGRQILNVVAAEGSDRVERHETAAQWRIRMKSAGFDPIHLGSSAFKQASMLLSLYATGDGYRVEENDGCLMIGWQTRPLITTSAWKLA
In words: yeast two-hybrid system. The procedure: as §1
BD Matchmaker Two-hybrid System 3 (Clontech, Palo Alto, Calif., USA; now part of Takara Bio) was used in the Y2H experiments. After confirming the PCR products of the AtGID1 genes by sequencing, PCR products were cloned into pGBKT7 DNA-BD shuttle vector to construct bait plasmids. Likewise, the entire coding region of each AtDELLA gene (GAI including EcoRI and XhoI sites; RGA including BamHI and XhoI sites; RGL1 including SmaI and SacI sites; RGL2 including SmaI and ClaI sites; RGL3 including SmaI and XhoI sites on the ends) was cloned into pGADT7 AD vector. The S. cerevisiae AH109 (MATa) strain or Y187 (MATα) strain was used, and DNA-BD and AD vector cassettes were used as negative controls. The details of the method used for the yeast assay are as described in the manufacturer's instructions (Yeast Protocols Handbook #PT3024-1; http://www.clontech.com/). Experiments were carried out four times independently. Similar results were obtained each time.

This is an account of results in patent US20090031441A1 (NATIONAL UNIVERSITY CORPORATION NAGOYA UNIVERSITY, published 2009).

B1: AtGID1b (At3g63010), yeast two-hybrid bait in pGBKT7 DNA-BD vector (receptor, not shown: small tags and cut ends)
chain: MAGGNEVNLNECKRIVPLNTWVLISNFKLAYKVLRRPDGSFNRDLAEFLDRKVPANSFPLDGVFSFDHVDSTTNLLTRIYQPASLLHQTRHGTLELTKPLSTTEIVPVLIFFHGGSFTHSSANSAIYDTFCRRLVTICGVVVVSVDYRRSPEHRYPCAYDDGWNALNWVKSRVWLQSGKDSNVYVYLAGDSSGGNIAHNVAVRATNEGVKVLGNILLHPMFGGQERTQSEKTLDGKYFVTIQDRDWYWRAYLPEGEDRDHPACNPFGPRGQSLKGVNFPKSLVVVAGLDLVQDWQLAYVDGLKKTGLEVNLLYLKQATIGFYFLPNNDHFHCLMEELNKFVHSIEDSQSKSSPVLLTP
notes: Bait fusion for the Y2H assays; also called Arabidopsis GID1
B1: the binding result in assay [1] and in assay [2] was “binds” each time.

B2: AtGID1a (At3g05120), yeast two-hybrid bait in pGBKT7 DNA-BD vector (receptor, not shown: small tags and cut ends)
chain: MAASDEVNLIESRTVVPLNTWVLISNFKVAYNILRRPDGTFNRHLAEYLDRKVTANANPVDGVFSFDVLIDRRINLLSRVYRPAYADQEQPPSILDLEKPVDGDIVPVILFFHGGSFAHSSANSAIYDTLCRRLVGLCKCVVVSVNYRRAPENPYPCAYDDGWIALNWVNSRSWLKSKKDSKVHIFLAGDSSGGNIAHNVALRAGESGIDVLGNILLNPMFGGNERTESEKSLDGKYFVTVRDRDWYWKAFLPEGEDREHPACNPFSPRGKSLEGVSFPKSLVVVAGLDLIRDWQLAYAEGLKKAGQEVKLMHLEKATVGFYLLPNNNHFHNVMDEISAFVNAEC
notes: Bait fusion for the Y2H assays (BD Matchmaker Two-hybrid System 3); also called Arabidopsis GID1
Regarding B2, the binding result in assay [2] was “binds”.
